This note sets out measurements from the DeepSol protein solubility set.

The series is described as follows: soluble on expression in E. coli; label from the status in PepcDB or PDB records.
For the sequence “MSLKSESKGGSNALVVSTFGLSEDIVKKDIIAPFEKENEAKVTLEVGNSADRFTKLKNNPNAGIDVIELAQANAAQGGKDGLFEKITEKEVPNLSQLTPGAKEVFESGAGVPIAVNSIGIVYNKEKLGKEIKNWDDLWSADLKGKISVPDVATTAGPLMLYVASEHAGQDITKDNGKAAFEAMKELKPNVVKTYSKSSDLANMFQSGEIEAAVVADFAVDIIQGAAENVTYIVPESGTYANYNTVNIPKKAQNKETAFKFVNARISEESQKAKAISLNEGPTNQQVTLSEKEAKNKTYGAIAERAKTVDFNFINSQLADWIDQWNRTMNQEGHHHHHH”, the “soluble on expression in E. coli” value is on record as “soluble”.

“MPPQKSKALWYAQLELGFRFDGQRTIMNHRKHHGPVRVQKMLWPEKTGVCHAIIVHPPAGIAGGDHLTFQVSTERKAHAVVTTPGAGKWYKTNGKQAFQHIYLNIANDSTLEWLPQETMLFDAAYAQSETIIHLDQTASFMGWDMLVLGRQARLETFEQGCYANRFKLYRNHKLLVADTLRFKGKDRWLSSCLGMNGHAVMGSFWAVAPEKYRATLYLEQHIELIRELMMRMDVPVTLTLLDDVVCARFLGDDVRACHDAFAAIRARLRRYWFDLDEEFPRIWRTLEHHHHHH”: the “soluble on expression in E. coli” value was “not soluble”.

On to “LNSPMITIVGTRTMTNYGKKILEEFVPKIIDSGIAVVSGLAKGIDAYAHQLALEKQGTAIAVIGNGTNISYPAENQSIQKRIISDGLLLSEYFPKSRPKQYHFPARNRILAGLTSATLVVEAKERSGSLITAAYATQENRNVLAIPGDLNRNNSNGTNQLIADGAKAVLKIDDILNE”, for which the “soluble on expression in E. coli” value was “not soluble”.

Consider “GSHMASKPIEDYGKGKGRIEPMYIPDNTFYNADDFLVPPHCKPYIDKILLPGGLVKDRVEKLAYDIHRTYFGEELHIICILKGSRGFFNLLIDYLATIQKYSGRESSVPPFFEHYVRLKSYQNDNSTGQLTVLSDDLSIFRDKHVLIVEDIVDTGFTLTEFGERLKAVGPKSMRIATLVEKRTDRSNSLKGDFVGFSIEDVWIVGCCYDFNEMFRDFDHVAVLSDAARKKFEK”, for which the “soluble on expression in E. coli” value is given as “soluble”.

With “MAYVKERIYESMFIIAPNVPEEERENLVERVKKIIEERVKGKIDKVERMGMRKFAYEIKKFNEGDYTVIYFRCDGQNLQELENFYRVTPEIIRWQTFRRFDLEKKERKAQREKAAAEATESSEGGSED”, the “soluble on expression in E. coli” value is on record as “not soluble”.

For the sequence “MLEINKIHQMNCFDFLDQVENKSVQLAVIDPPYNLSKADWDSFDSHNEFLAFTYRWIDKVLDKLDKDGSLYIFNTPFNCAFICQYLVSKGMIFQNWITWDKRDGMGSAKRRFSTGQETILFFSKSKNHTFNYDEVRVPYESTDRIKHASEKGILKNGKRWFPNPNGRLCGEVWHFSSQRHKEKVNGKTVKLTHITPKPRDLIERIIRASSNPNDLVLDCFMGSGTTAIVAKKLGRNFIGCDMNAEYVNQANFVLNQLEIN”, the “soluble on expression in E. coli” value was “soluble”.

As for “MEGIIVRRVIPSDNSCLFNAIGYVMDKDKNKAPELRQVIAAAVASNKEKYNEAFLGKLNEEYCAWILNPDKWGGAIELSILADYYGREIAAYDIQTSRCDLYGQTRNYDERVMLIYDGLHYDALALSPFEGAEEDFDMTIYPVGKDRSIGSIEGLALNLVKDQQRKRSYTDTANFTLRCGVCQIGVIGQKEAVEHAQATGHVNFQEYK”, the “soluble on expression in E. coli” value is on record as “soluble”.

With “MGSDKIHHHHHHMKRSIEDTPVVFLGAGNLATNLAKALYRKGFRIMQVYSRTEESARTLANEVEAEYITDLKDVSNEARLYIISLKDAAFVELLPQITDGKQHALLVHTAGSIPMNIWEGHAERYGVFYPMQTFSKQREVDFREVPFFIEAKRPEDTELLKAVAGTLSDKVYEADSEQRRSLHLAAVFTCNFTNHMYALAAELLEKYHLPFDVMLPLIDETARKVHELAPRDAQTGPAVRYDENVMNKHLSMLADSQALQEIYKLMSKSIHEHHQL”, the “soluble on expression in E. coli” value was “not soluble”.

As to “MSLTGTSAIENVDSGNEESMIYQQVGDQTKVLTENDKYLVKCINSFNAEQLPIPSHVPFYSTIDGVNKQCSYNDNENLYVWNFINSKWDDSNYCKIPLNTDSSSSVNALPKSVFILPTNYDTDAEMLGLENSNSSNGIVGGVILVENTADATYLVYYEDMRSINHLSTSISKNMAHLLDLKLHSEEKVTLMLNSEPAGLVLATTEGRLMFITIRETNGKPCLTLKQQLIRPKGSGPLAFLSLFSSSNEIISLRNGPIIGKGERIVYVLTRNGRFQVWKLSVASKCVKMMDTNFYDSILDDLVELYPFAQGSLKILDTHPITNQPFSPQVVLTQISSSDETNFILSTIILDEQTNSFTIFSTYRLNTYIMKGNSALAKPKLCVPSSLQSATSKYFDLFIVFDKAVVITQTSSKLDSTYTLKRKWEDIISFNKEIQILAESNDASTVYLLTKGMGIISIIPKKERGETAYEESFVKSHLDQAIYFSSSSSNPVEFNLPGGLHLEQDEVENDLKTASEEILLSSSKYIPPLTDNIEKHLSLRLVYFRNLISFVKDNFAFSISPSKKLDIIENFELLNCFHKFNNFISSSNFELKSFWDRTLEANGNINEIELAVEKIHRFPDLFSTYLNTIIKELPSKSYTFKLTLADLIIETIYDAILEEGEKKLRYEFLSLDPLELNTHLPWFISIDILDSINQLFFDLKFSLEGQEKNANTQLLVIVKTLYYLFNQVRLFFLKENNMNDVSAQDFMKKCDQLYENNHLAWNQTLCELGLNEDSLEISEFYHDFVSLVETLDTLEAVESKALYEEYFARFGEQFAHTLFEYYVKKSKLQDLFYRFPEQQEFLVSFFKKYPQYGRVSWIFSIINYDYASAAATLYDITSGDRASAMTLESAQLYLNIAKLSTLAAHENHANVNLLGALKRIQANLDVVDGGKDLVEKLKRVDGAPSHLQANYKGTEFEKLFDLLVKKVTNGTMLQFVEVVILYSLIDDKECLYHALKLLAIDGDILELELKKFLISLIWRRSILFDIQNAYDTTSEDSTLHFVLKQYLEDELFRANCPLPTVGVLTEKTMFTESLLSSLFSNYELDTKKLQDILEKEYNTVESTAVDIEKRIIETISSLDKANDNSYTVNYHDLTIEYQNEGHHHHHH”, the “soluble on expression in E. coli” value is “soluble”.

On to “MVLKTVALVGNPNVGKTTIFNALTGLRQHVGNWPGVTVEKKEGIMEYREKEFLVVDLPGIYSLTAHSIDELIARNFILDGNADVIVDIVDSTCLMRNLFLTLELFEMEVKNIILVLNKFDLLKKKGAKIDIKKMRKELGVPVIPTNAKKGEGVEELKRMIALMAEGKVTTNPIIPRYDEDIEREIKHISELLRGTPLAEKYPIRWLALKLLQRDEEVIKLVLKYLGQEKMDEILKHISELEEKYKRPLDIVIASQKYEFLEQLLRKFVVHE”, for which the “soluble on expression in E. coli” value is given as “soluble”.

For “AQSVPYGISQIKAPALHSQGYTGSNVKVAVIDSGIDSSHPDLNVRGGASFVPSETNPYQDGSSHGTHVAGTIAALNNSIGVLGVSPSASLYAVKVLDSTGSGQYSWIINGIEWAISNNMDVINMSLGGPTGSTALKTVVDKAVSSGIVVAAAAGNEGSSGSTSTVGYPAKYPSTIAVGAVNSSNQRASFSSAGSELDVMAPGVSIQSTLPGGTYGAYNGTCMATPHVAGAAALILSKHPTWTNAQVRDRLESTATYLGNSFYYGKGLINVQAAAQ”, the “soluble on expression in E. coli” value is recorded as “soluble”.

For the sequence “INTVGYLEQKMFAAMVADNQMAMVMLNPKNLKASNGEEELAGQTWYWKVAPVATTQPLLKAFDVSVAAEKQASPIITVRSYVAK”, the “soluble on expression in E. coli” value is given as “soluble”.

Take “GMPTRVIEDKGDMTPSFGIDDRIFLGEGLFETIRVNSSKPSFAYMHWERLGNSARQLGIPFEISFDDWFEHLIQKIQKDNLYHGGIKAILSGGPASRGLAERGQVSQLIFQTFNYSIQKHPVRLISINWLRDKANPLYQLKSVNYLEAIIAQRQAIAVGADDALFFNTENHVTETTCANLFLIENNILYTPRVEDGILPGITRARLISHCQQHKMSVQEISLTKKRIEDADAVFLTNSLQGIRRVLSLDNIIFEVNHPIIDKLIFLLNQDES”: the “soluble on expression in E. coli” value was “soluble”.

For “AHHHHHHGSGSSRTFRTSWADLGNLAKSIPPHHHLNPFEGKWNKKLSKKAIIMWQINVNDNRKFLSDC”, the “soluble on expression in E. coli” value is on record as “not soluble”.

As to “PIEGEKVDLRIMSTTDLHTNLVNYDYYQDKESQKIGLAKTAVLIEEAKKENPNTVLVDNGDVIQGTPLGTYKAIVKPVAENEEHPMYQAMNALGYDASTLGNHEFNYGLDYLKKIIATANLPILNANVLDFKTHQPVFKTYDIITKTFKDSTGRAVALNIGITGIVPPQILNWDKANLEGKVIVKDSVKAIEEIVPTMRAKGADVILVLSHSGIGDDRYEEGEENVGYQIASIKGVDAVVTGHSHAEFPSGNGTGFYEKYTGVDGINGKINGTPVTMAGKYGDHLGIIDLGLSYTNGKWQVSESSAKIRKIDMNSTTADERIIALAKEAHDGTINYVRQ”, the “soluble on expression in E. coli” value was “not soluble”.

For “GPGSMQPYGMSTSRTNRRPLVASRGGPNAPQRNYAMVTGPVDPSTSLIRYELPFSPADPKRSVKLRRRFGEPIEESVVDPNVRVVLDSFIPPRAWYDDDGVLWVQHASPKPASRTDTVETHEKLRRRLRETGAKRTGICPIRSLLLAECFLEVIRQVTVECWERGLVLLKIHAERVAAQTAHRELFESRVGYAFRLALKGEKDTSRVQQDLGKLKKRMEELAEEEKTLRQQCDEASARGEEEMLIVGKQHSDEVAAIKKEGILKRNQLEHMISMPSTP”, the “soluble on expression in E. coli” value was “soluble”.

On to “MNNSAEYFIKSLNMTAHPEGGYFKESFISPSKLAPNTLHINEERLLWTSIYFLLRTGEVSNFHRLKSDEMWYFHAGESLTIYMISPNGELIEKQLGLNIEKGETPQVLVPKDYIFGSAMNNEGFSLVGCMVAPGFDFKDFELFEREDLLEKYPKYKEVIEKLTRLEHHHHHH”, for which the “soluble on expression in E. coli” value is “not soluble”.

Take “MTYMVSILLVSPRPGHDVATAERNDVLRATGLAPEQLEQVLIDDVEKHLPDFSRFDGIIVGGSPLNISNETYSDWQKHVHTELSRIVYSAIPSFFICYGNSFLVDLTGGTVGRTHPEDSGATIVSLTADGLTDRITRDLPTTFTSLTGHTENAICLGDSTVLLATGDTCPIQMIRANETTWACQFHAEMDAQAMKTRMDFYKDYGYFSPEDYDAIVSSLPSIDTTYSNRVLRNFIEVCEGKR”: the “soluble on expression in E. coli” value is reported as “not soluble”.

“MGSDKIHHHHHHMYGLIVNKASGNGKGQRTWKKVEYELQIRNTPYLVRFTSGSGHATTIVKELLTEGVKTIIAVGGDGTINEVANGLVNHRVPLGIIPAGSGNDFARCLNIPMHYEKALHRIFENKQKKVDLLHLGQRHCLTVTGIGFDGKIAKTVNEAIYKNWFNQFGFGGLSYVLSMLEVLKDYRPTNIQITVDGKELFFSGVWLVAVANSPNYGGGIRICPEASYDDGLLNICVVHGMSKWQLLRLFPKAYKGKHVVMEQHVTLLTGKDVYVQSDTPVLVQSDGEPIMESPVRLQIKKGALSVV”: the “soluble on expression in E. coli” value is reported as “not soluble”.

Consider “MSLGIAGTNTVRLQVYTNLKTFKSGDEISDGWVAKFHTDGDYIKWFAIENEDSLEGKEIKLFDTYKVDYTGTIKEKEKGKVTYAVLKAYVAIDPLERQYKELTLGIGDEIEDTAYSIKDVDVEFEPKETYIPKKLTEPITVLDTEIMEQGLENVDSNLILVGGPVVNKVTAALAEDLGVPTTYDEWKEKFGTGADSGQIIYKEKCSKIGGYGVLLVAGTDREGTRAAAEALLEYISKLEGHHHHHH”, for which the “soluble on expression in E. coli” value is “soluble”.

For “MPTTIEREFEELDTQRRWQPLYLEIRNESHDYPHRVAKFPENRNRNRYRDVSPYDHSRVKLQNAENDYINASLVDIEEAQRSYILTQGPLPNTCCHFWLMVWQQKTKAVVMLNRIVEKESVKCAQYWPTDDQEMLFKETGFSVKLLSEDVKSYYTVHLLQLENINSGETRTISHFHYTTWPDFGVPESPASFLNFLFKVRESGSLNPDHGPAVIHCSAGIGRSGTFSLVDTCLVLMEKGDDINIKQVLLNMRKYRMGLIQTPDQLRFSYMAIIEGAKCIKGDSSIQKRWKELSKEDLSPAFDHSPNKIMTEKYN”, the “soluble on expression in E. coli” value is recorded as “soluble”.
